Results: the supplement of paper PMC10126150
± gives the standard deviation of the averaged measurements.

Test system: ATP
Experiment: switch fluorescence ratio, 500 uM ATP over buffer (Cy3 cluster intensity, sum of 5 cycles each) (fold (ratio)); higher = stronger signal-on switching upon ATP binding; sequences stand for … in TCGTCGGCAGCGTCAGATGTGTATAAGAGACAGTTTTTTTTTTTTTTTTTTTTTTTTT…TC
Details: aptamer strand: ATP DNA aptamer (quencher-CACCTGGGGGAGTATTGCGGAGGAAGG + anchor), 100 nM annealed; ATP concentration: 500 uM
Summary of the method: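 Clusters with intensities outside 100-1000 RFU were excluded. The remaining Cy3-labelled switching-strand clusters on a modified Illumina MiSeq flow-cell had been annealed to 100 nM quencher-labelled ATP aptamer and imaged in selection buffer, then after 15 min with 500 uM ATP at 22 °C, for five cycles separated by NaOH stripping and re-annealing. The fluorescence ratio, averaged per switch-domain sequence, is each cluster's summed target-cycle Cy3 intensity over its summed buffer-cycle Cy3 intensity.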
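Further: ATP exposure 15 min at 22 °C before imaging.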

Row | Sequence | switch fluorescence ratio
1 | AGGGTATTGT | 1.02 ± 0.075
2 | AGGGTCACTC | 0.9857 ± 0.0043
3 | AGGGTCAGGA | 0.996 ± 0.021
4 | AGGGTCGCCT | 1 ± 0.04
5 | AGGGTCGCGT | 0.989 ± 0.034
6 | AGGGTCGGCT | 0.993 ± 0.02
7 | AGGGTCGGGC | 1.027 ± 0.0061
8 | AGGGTCGGTG | 0.98 ± 0.027
9 | AGGGTCTACG | 0.997 ± 0.044
10 | AGGGTCTAGA | 0.978 ± 0.023
11 | AGGGTCTCGT | 1.009 ± 0.0025
12 | AGGGTCTTAG | 1.02 ± 0.049
13 | AGGGTGATAC | 1.61 ± 0.62
14 | AGGGTGGAAG | 0.993 ± 0.038
15 | AGGGTGGGTG | 1.01 ± 0.024
16 | AGGGTGTAGA | 1.016 ± 0.0045
17 | AGGGTGTCCA | 0.973 ± 0.028
18 | AGGGTGTCCG | 1.09 ± 0.054
19 | AGGGTGTGGC | 1.0304 ± 0.00027
20 | AGGGTTAGCT | 0.991 ± 0.02
21 | AGGGTTAGGA | 1.02 ± 0.033
22 | AGGGTTAGTC | 1.03 ± 0.058
23 | AGGGTTATGC | 0.984 ± 0.031

Row | Sequence | switch fluorescence ratio
24 | AGGGTTGAGA | 0.985 ± 0.033
25 | AGGGTTGCTG | 1.05 ± 0.074
26 | AGGGTTGGAA | 0.967 ± 0.011
27 | AGGGTTGGAC | 0.9774 ± 0.0057
28 | AGGGTTGGG | 1.03 ± 0.029
29 | AGGGTTGGGA | 0.9962 ± 0.0068
30 | AGGGTTGGTG | 1.04 ± 0.077
31 | AGGGTTGTGC | 1.03 ± 0.049
32 | AGGGTTTCAG | 0.98 ± 0.026
33 | AGGGTTTTAC | 1.017 ± 0.0013
34 | AGGGTTTTGA | 0.996 ± 0.054
35 | AGGGTTTTTG | 0.994 ± 0.016
36 | AGGTAATCTT | 0.979 ± 0.016
37 | AGGTACGCTC | 0.99314 ± 0.00048
38 | AGGTACGGCC | 1.03 ± 0.033
39 | AGGTAGCGGC | 0.9911 ± 0.0095
40 | AGGTAGGCGC | 0.98 ± 0.041
41 | AGGTAGGGGG | 0.993 ± 0.019
42 | AGGTATCCAC | 1.03 ± 0.035
43 | AGGTATGCAG | 0.9983 ± 0.0044
44 | AGGTATGGTC | 0.995 ± 0.031
45 | AGGTATTTTT | 1.009 ± 0.0042
46 | AGGTCACGGC | 1 ± 0.034

Row | Sequence | switch fluorescence ratio
47 | AGGTCAGAGA | 1 ± 0.028
48 | AGGTCATCGA | 1.004 ± 0.0064
49 | AGGTCCCTGT | 1.01 ± 0.042
50 | AGGTCCGGAA | 1.14 ± 0.017
51 | AGGTCGGGTA | 0.979 ± 0.038
52 | AGGTCGTGTT | 0.992 ± 0.01
53 | AGGTCTAATG | 1.01 ± 0.03
54 | AGGTCTGAAA | 1.04 ± 0.042
55 | AGGTGAAGGT | 1.01 ± 0.0035
56 | AGGTGAGAAT | 1.16 ± 0.035
57 | AGGTGATACG | 1.06 ± 0.054
58 | AGGTGCAATT | 1.47 ± 0.54
59 | AGGTGCCAG | 0.96208 ± 0.00094
60 | AGGTGGGCGC | 0.94 ± 0.07
61 | AGGTGGGGAC | 1.01 ± 0.014
62 | AGGTGGGGTC | 0.984 ± 0.016
63 | AGGTGGTTG | 0.998 ± 0.028
64 | AGGTGTAAGG | 1.01 ± 0.051
65 | AGGTGTTAAA | 0.9941 ± 0.0033
66 | AGGTGTTATG | 1.03 ± 0.051
67 | AGGTGTTGCG | 1.016 ± 0.0056
68 | AGGTTAATAG | 0.996 ± 0.012
69 | AGGTTAATCT | 1.01 ± 0.018

Row | Sequence | switch fluorescence ratio
70 | AGGTTACTCC | 1.07 ± 0.032
71 | AGGTTAGTTT | 0.985 ± 0.018
72 | AGGTTCAAAT | 0.996 ± 0.044
73 | AGGTTCAACG | 1.01 ± 0.028
74 | AGGTTCACTA | 1.01 ± 0.06
75 | AGGTTCGATC | 1.02 ± 0.043
76 | AGGTTGCAGC | 0.992 ± 0.032
77 | AGGTTGCAGT | 1.01 ± 0.077
78 | AGGTTGCGGG | 1 ± 0.014
79 | AGGTTGGACT | 0.99145 ± 0.00056
80 | AGGTTGGCTT | 0.96006 ± 0.0007
81 | AGGTTGTACT | 0.968 ± 0.016
82 | AGGTTGTGGC | 0.992 ± 0.033
83 | AGGTTGTGTC | 0.979 ± 0.047
84 | AGGTTGTTGG | 0.966 ± 0.016
85 | AGGTTTAAAC | 1.06 ± 0.063
86 | AGGTTTAGTC | 0.9945 ± 0.0026
87 | AGGTTTATAT | 0.999 ± 0.016
88 | AGGTTTGGGC | 0.997 ± 0.061
89 | AGGTTTTATA | 0.9919 ± 0.0094
90 | AGGTTTTGAT | 1.01 ± 0.019
91 | AGGTTTTGTT | 0.964 ± 0.017
92 | AGGTTTTTCG | 1.03 ± 0.03

Row | Sequence | switch fluorescence ratio
93 | AGTAAAAGCG | 1.04 ± 0.017
94 | AGTAAATTTG | 0.9918 ± 0.0076
95 | AGTAACATAT | 0.993 ± 0.012
96 | AGTAACCAAG | 1.01 ± 0.037
97 | AGTAAGAGCA | 1.01 ± 0.011
98 | AGTAAGATCA | 0.992 ± 0.025
99 | AGTAAGGCTC | 1.14 ± 0.061
100 | AGTAAGGGGA | 1.08 ± 0.045
101 | AGTAATACGG | 1.3 ± 0.29
102 | AGTAATATTT | 1.03 ± 0.0061
103 | AGTAATGGGT | 0.996 ± 0.017
104 | AGTAATGGTT | 1.01 ± 0.014
105 | AGTAATTTTG | 1.01 ± 0.065
106 | AGTAATTTTT | 1 ± 0.018
107 | AGTAGAGCCT | 1.061 ± 0.0069
108 | AGTAGAGGGA | 0.995 ± 0.019
109 | AGTAGAGTGT | 0.995 ± 0.04
110 | AGTAGATTCC | 1.042 ± 0.01
111 | AGTAGATTGG | 0.995 ± 0.028
112 | AGTAGCAAAT | 1.2 ± 0.13
113 | AGTAGGAAGG | 1.01 ± 0.019
114 | AGTAGGCAAA | 1.01 ± 0.014
115 | AGTAGGCAAG | 1 ± 0.035

Row | Sequence | switch fluorescence ratio
116 | AGTAGGCAGC | 1.01 ± 0.033
117 | AGTAGGCGCT | 1.01 ± 0.048
118 | AGTAGGGCTC | 1 ± 0.046
119 | AGTAGGGGGA | 0.9912 ± 0.0034
120 | AGTAGGGGT | 1.02 ± 0.054
121 | AGTAGGGTGT | 0.968 ± 0.029
122 | AGTAGGTTTT | 1.04 ± 0.078
123 | AGTAGTATCT | 0.981 ± 0.03
124 | AGTAGTGGGT | 1.02 ± 0.056
125 | AGTAGTTATA | 1.03 ± 0.093
126 | AGTAGTTGCC | 1.014 ± 0.0021
127 | AGTATAAAAT | 1.01 ± 0.018
128 | AGTATAGACC | 0.983 ± 0.01
129 | AGTATAGAGT | 1.01 ± 0.037
130 | AGTATAGGGG | 1.006 ± 0.007
131 | AGTATATAGG | 0.986 ± 0.018
132 | AGTATATGGG | 0.988 ± 0.023
133 | AGTATCACAG | 0.9621 ± 0.0047
134 | AGTATCTTTA | 0.9913 ± 0.0096
135 | AGTATGAGGT | 0.98 ± 0.012
136 | AGTATGCATA | 0.951 ± 0.016
137 | AGTATGTATG | 1.02 ± 0.024
138 | AGTATGTTTT | 0.995 ± 0.0076

Row | Sequence | switch fluorescence ratio
139 | AGTATTGCAG | 0.9322 ± 0.002
140 | AGTATTTGGT | 1 ± 0.025
141 | AGTATTTGTA | 1 ± 0.02
142 | AGTATTTTGG | 1.01 ± 0.018
143 | AGTCAGATGG | 0.981 ± 0.025
144 | AGTCAGGGGG | 1 ± 0.028
145 | AGTCAGTTTT | 1.024 ± 0.0078
146 | AGTCATGAAA | 1.11 ± 0.12
147 | AGTCATGTGG | 1.01 ± 0.019
148 | AGTCCAATGT | 0.993 ± 0.021
149 | AGTCCCAAGG | 1.13 ± 0.2
150 | AGTCCGGAGT | 1.05 ± 0.023
151 | AGTCCGGGTA | 1.08 ± 0.17
152 | AGTCGAGCTA | 0.986 ± 0.021
153 | AGTCGGACTT | 0.993 ± 0.01
154 | AGTCGGCTGT | 0.99449 ± 0.00015
155 | AGTCGTTGGG | 0.984 ± 0.015
156 | AGTCTAGGGC | 1.04 ± 0.017
157 | AGTCTATCTG | 0.964 ± 0.03
